Experiment: label from the status in PepcDB records
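Further: failed if final PepcDB status was selected cloned or expressed and not failed if soluble or beyond.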

**Q.** For “MEMRFFVLGAGSWGTVFAQMLHENGEEVILWARRKEIVDLINVSHTSPYVEESKITVRATNDLEEIKKEDILVIAIPVQYIREHLLRLPVKPSMVLNLSKGIEIKTGKRVSEIVEEILGCPYAVLSGPSHAEEVAKKLPTAVTLAGENSKELQKRISTEYFRVYTCEDVVGVEIAGALKNVIAIAAGILDGFGGWDNAKAALETRGIYEIARFGMFFGADQKTFMGLAGIGDLMVTCNSRYSRNRRFGELIARGFNPLKLLESSNQVVEGAFTVKAVMKIAKENKIDMPISEEVYRVVYEGKPPLQSMRDLMRRSLKDEFWASVVDSSL”, which protein production is on record?
**A.** not failed

**Q.** For “MEMSKQLGKKFNLLTLLAYAAPTMALMLFMSIYTMVDGMFIARYVGATALSAVNIFFPIYGLIIAIALMLGTGANAIIAKKIGENNEEEAKENFTFIVICGAVLGLVITVFGLLLMEPILLMLGAGATEELFDFTYTYAKIILCTSPFMILQMLFQNFFVTAGKPNLGLTITVVGGVANIVLDYVFIVLLQMGIAGAGIATAIGIFIPAAYGFVYFIYNKESGLHFVKPKVDGKVLLNSCINGSSEMVSNLASSIVTFAFNLLMIKHLGVDGVAAITIMLYVMFILSSISMGYSAGVAPIISYNYGSKNSSQLKRVFNYSLLIIVIGSVTMYGVSMMFGAYFIQFMAPEGSAVYHIAIEGLNIFSISFLFMGFNIFSSMVFTAFSNGKISAAISFLRTLVFVLASLWILPAILGVTGIWLAIPLAEILSVIVCIFFLTHYRNDYHYA”, which protein production is on record?
**A.** failed

**Q.** For “MEMVKSRSKVAIIGAGFVGASAAFTMALRQTANELVLIDVFKEKAIGEAMDINHGLPFMGQMSLYAGDYSDVKDCDVIVVTAGANRKPGETRLDLAKKNVMIAKEVTQNIMKYYNHGVILVVSNPVDIITYMIQKWSGLPVGKVIGSGTVLDSIRFRYLLSEKLGVDVKNVHGYIIGEHGDSQLPLWSCTHIAGKNINEYIDDPKCNFTEEDKKKIAEDVKTAGATIIKNKGATYYGIAVSINTIVETLLKNQNTIRTVGTVINGMYGIEDVAISLPSIVNSEGVQEVLQFNLTPEEEEALRFSAEQVKKVLNEVKNL”, which protein production is on record?
**A.** not failed

**Q.** With “MENEKILNPIIIQRADPMIYKHNDGYYYFTASVPEYDRIEVRKAKTIEGLRNAEPVDVWRRHESGEMSNLIWAPEIHFINGAWYIYFAAAPDKNIEDDTFNHRMFVIQNENENPFTGNWVEKGRIKTAWESFSLDATIFEHNEKLYYVWAQQDINIKGHSNIYIAEMENPWTLKTKPVMLTKPELEWEIKGFWVNEGPAVLKKNGKIFITYSASATDVNYCIGMLTAEENSNLLDKNSWTKSQTPVFKTSMENHQYGPGHNSFTVSEDGKHDVIVYHARNYTEIKGDPLYDPNRHTRAQIINWREDGTPDFGVPEVDSLEIETPVKA” as the sequence, how does the protein production read?
**A.** not failed

**Q.** With “MENINFFIVFIEGILSIFSPCILPILPIYLSMLSNSSVEDIRDSNFKSGVLIRNTLFFTLGISTTFFILGSSISALSSFFNTNKNIIMILGGVIILFMGLFYLGVINLNILNREKRLNFKYKNMSPLSAFVLGFTFSFGWTPCIGPILASVLVMASSSKNLLMSNLLILVYTIGFILPFIIASLFYGKLFKKFDGIKKHMDLIKKISGIFIIIAGLIMLVGGIRNMNNEIKINNNPQINKSESANKDSKNESDNKKQEEGNKIPPIDFTLYDQYGNKHTLSEYKGKTIFLNFWATWCPPCRGEMPYIDELYKEYNENKDDVVILGVASPNLGREGSEEHIKNFLKEENHVFPVVLDENGAMVYQYGINAFPSTFIINKEGYITKYIPGAMTKETMKTLIESER” as the sequence, how does the protein production read?
**A.** failed

**Q.** For “MENLKNIQPREDFNWEEFEAGGVHAAVSRQEQEAAYDKTLNTIKEKEVVMGRVTAINKREVVINVGYKSEGVVPATEFRYNPELKVGDEVEVYIENQEDKKGQLVLSHRKARAARSWERVNEALEKDEIVKGYVKCRTKGGMIVDVFGIEAFLPGSQIDVRPIRDYDAFVEKTMEFKIVKINQEYKNVVVSHKVLIEAELEQQKKEIIGKLEKGQVLEGIVKNITSYGVFIDLGGVDGLIHITDLSWGRVAHPEEIVQLDQKINVVILDFDEDRKRIALGLKQLMPHPWDALDSELKVGDKVKGKVVVMADYGAFVEIAQGVEGLIHVSEMSWTQHLRSAQDFLHVGDEVEAVILTLDREERKMSLGLKQLKPDPWADIETRFPVGSRHHARVRNFTNFGVFVEIEEGVDGLIHISDLSWTKKIKHPSEFTEVGADIEVQVIEIDKENRRLSLGHKQLEENPWDVFETVFTVGSIHEGTVIEVMDKGAVVSLPYGVEGFATPKHMVKEDGSQAVLEEKLPFKVIEFNKDAKRIIVSHSRVFEDEQKMAQREANAERKAEAKAAQKEAAAEAANPAQAVEKATLGDLGELAALKEKLSEN”, which protein production is on record?
**A.** failed

**Q.** For “MENLTNDVITILQYLLPGFVSAWVFYSLTSYPKPSQFERVVQALIFTIFIQAIVVVVEFSVRWLCATYEITGVPDKFGLVGSVVTAILLGVAFAGFANNDLLHKCLRRCLITRETSYLRNGLVPFYRTLLLLSYT”, which protein production is on record?
**A.** failed

**Q.** Which protein production does the source give for “MENPLFCPDCGMMRDNCTCKGKGRLSFFRNIIRPPEKSDTLNEDLQRRYPHIPPEIIENFPFPQPRPGQLDIINDIYQAIEEGYRYVILEAGTGTGKSAIACTLAGIYQPAYILTMTKQLQDQYAREFGFPVVKGRSNFFCLNDNLESTCDMGTCQTLPSSEKFQCPYGVVRGETLLGEEAFQDSYGNRVFFKTAEHCQYWEQKAEAINSPITLMNYDYAFLELNYVGHFDRRNLMILDEAHNIEDKLMRRLEVTISNKRLSKDIRRTIPPSMLREDDPAEWVLQIEAIADHYSDLELDSMSRRRRDRIKRTIKRLSELRMSLEDEPKNWVIDADDDSVSFKPLRVHHYAHDRLFSYSEVCLFMSATILSERLFCQWLGINPGDAYFVRVDSPFPASRRPIELKIAGKMSRNRIRHTAPETIPILNRILERHKNDKGLIHTHNYRCQRFIMDNIPSRRLIDHKASNREAVLRYFEESDEPLVLVSPSMSEGVDLPYDKCRFQVIYKIPFPYLGDKQVNRRQRMDQRWYAYKTIMTLMQAYGRGMRAHDDSCYTYILDGNIEMIFRSPLYRSLLPEFFKEAIVNE” here?
**A.** failed

**Q.** For “MENQEVVLSIDAIQEPEQIKFNMSLKNQSERAIEFQFSTGQKFELVVYDSEHKERYRYSKEKMFTQAFQNLTLESGETYDFSDVWKEVPEPGTYEVKVTFKGRAENLKQVQAVQQFEVK”, which protein production is on record?
**A.** not failed

**Q.** With “MENRRIVIITGANSGIGKEAAQRFANEGDHVIMACRNIAFSRKVQHDIIAASGNDHVDLLELDVSSFASIRTFCTTFNSQYKRLDILIHNAAYFNHGEPYRLSPDGIELTFATNVFGPYLLTSLLRDRLKQSEDPRILHAGSNIIKHFFDPKQTFDLDLLQGNHGTKSYSVYKMYCQSKMALMLLTFQMAEVFADDGIKVNALQINGAKMSKRTIQKVKPWWRPIAWGQNLFFPPPSYMADKYFTICTSDKYKQTTGKLFNDKLEIMEPSPTHYPGFFKQMKLLLGSNVYPAYENTNIREKLWALCKELVGELEHHHHHH” as the sequence, how does the protein production read?
**A.** not failed

**Q.** For “MENSFLSSKLVFLLAIALVLFLNTELSFLTAEGASDSNSKVYIVYLGQREHDDPELLTASHHQMLESLLQSKEDAHNSMIYSYQHGFSGFAALLTSSQAKKISEHPEVIHVIPNRILKLKTTRIWDHLGLSPIPTSFSSSSSAKAKGLLHNTSMGSEAIIGVVDSGIWPESKVFNDQGLGPIPKRWRGKCRSGEKFNATMHCNKKLIGAKYYQSGLLAMNGGKFNRIIIRDFKSNRDATGHGTHTATIAGGSFVPNASFYGLARGTVRGGAPRARIASYKACWNVVGWGGICSSADMWKAYDDAIHDQVDVLSVSIGASIPEDSERVDFIAAFHAVAKGITVVAAAGNDGSGAQTICNVAPWLLTVAATTLDRSFPTKITLGNNQTFFGKTILEFDSTHPSSIAGRGVVAVILAKKPDDRPAPDNSYIFTDYEIGTHILQYIRTTRSPTVRISAATTLTGQPATPKVAAFSSRGPNSVSPAILKPDIAAPGVSILAAVSPLDPGAFNGFKLHSGTSMSTPVVSGIIVLLKSLHPKWSPAAMRSALVTTAWRTSPSGEPIFAQGSNKKLADPFDYGGGLVNPEKAAKPGLVYDMGIKDYINYMCSAGYNDSSISRVLGKKTKCPIPKPSMLDINLPSITIPNLEKEVTLTRTVTNVGPIKSVYRAVIESPLGITLTVNPTILVFKSAAKRVLTFSVKAKTSHKVNSGYFFGSLTWTDGVHDVTIPVSVKTTISM”, which protein production is on record?
**A.** failed

**Q.** For “MENSLNQNKVWGWGELALMYFPNISQKSATMQLLKWIRVSDELVGQLEKSGWHPGKKYLTPRQKDYIVGHLGEP”, which protein production is on record?
**A.** failed

**Q.** With “MENSTLYIVIAGLWLAVGFGIFLKKLDMPVIIGYICTGTVLAAFFKINDFDLLSDIGEFGIVFLMFMIGIEFNFDKLKSIKQEVLVFGLLQVVLCALIAFLLGYFVLGLSPIFSLVLGMGLSLSSTAIVLKFFEDSKQLSTPMGKSAVGILIFQDIAAIPMLLILTILGSKDSNVNLLILKTFISAGIILVLLLLPGKKGANLILEQAKDTRLPEIFIGTILVIVCSAAGLSHFFGFSMSLGAFIVGMAISKSRYKINVQEEFAQLKNLFLALFFITIGMQINVSFFMEKFFVVIFLLILVMGFKTAIIYALLRFFRDAKTAIKTALSLAQIGEFSFVIFLNSGSHQLFNLQEKKGILGFLHQKNILNIAQNDIHQLLILMVVFSMLATPFILKYLESIAQFILHQKSQENEPAKK” as the sequence, how does the protein production read?
**A.** failed

**Q.** Which protein production does the source give for “MENTAPDVLDAGAAELPVERLKPELADVPNEKEDEDEAVCGGAEGVVELVVELAVLFKKENPVEAENGEAEAFEVLDVDEELKVDTPNGDGEEVVAPDEEDAKRDGVEPAEEDEPKNGEEPVAPKIDGEEPEADEATLKEGDEPVAPKMDDEEPGADEATLKDGVAPVADDGAPKRGDVEVAADEDAPKREELEAEADEGAENKEGEDPKRGVEPLAGAAPNGDDDGVAAEEAGAPNRDDDGVAVEEAEEVTNPKGEEPGAAEEALVVDEPNSDGAGADEEAAVPNPNDGVVEAGVTEAEDPNPNDGVDEEAEEPNPKEGVEEAPNPNDGVVEEAGVDDTEDPKPNPVELGFEDWLKEKDNGEVVDEAEEELVAEEDPNENPPTELD” here?
**A.** failed

**Q.** For “MENTVQEARRYLSNAREILSEKAKKNGIYYNDIKYVKLAGRAAYSGVLVALDGLLGKKDTRKSVEWYQEKLGKVDKKALTAFNSAYKILHLSMAYDGIELVSVSKDGLKQAEALINWVETRTAAA”, which protein production is on record?
**A.** failed

**Q.** For “MENVITYNNDKGLLAYIQFLASSAQKIGDGNTDRVFDFEDALDQTQMAQLAVDELKKIPEVNALFSERWLPAPFNLDDLAKLPEGTLGHVYAREMKARGFDPYFYKKVPVVDDISYLKMLWRSTHDIYHVVAGFDTNVFGEIGLQAFFLAQTPIPISVMLLSFGMVMISLYQPTNFKALMTEISRGYRVGSHTPGKLIAQKWDQLWDVQVSEIRERLGVNSIL”, which protein production is on record?
**A.** not failed

**Q.** For “MENVSDDRFAEMVWEAVSGGATLKDVHGIPQDMMEGLYAHAYDFYHKGRLDEAETFFRFLCIYDFYNPDYIMGLAAVCQLKKQFQKAVDLYAVAFALSKNDYRPVFFTGQCQLFMRKAAKARQCFELVCEQSGLEHHHHHH”, which protein production is on record?
**A.** failed

**Q.** For “MEPAGPCGFCPAGEVQPARYTCPRCNAPYCSLRCYRTHGTCAENFY”, which protein production is on record?
**A.** not failed

**Q.** Which protein production does the source give for “MEPDMTQAFDDDTLRFYRGNATAYAERQPRSATLTKFLGELPAGAKILELGCGAGYQAEAMLAAGFDVDATDGSPELAAEASRRLGRPVRTMLFHQLDAIDAYDAVWAHACLLHVPRDELADVLKLIWRALKPGGLFYASYKSGEGEGRDKLARYYNYPSEEWLRARYAEAGTWASVAVESSEGKGFDQELAQFLHVSVRKPELEHHHHHH” here?
**A.** not failed
